Experimental data as given in paper PMC6312923 (Life Science Alliance, 2018).

B1: Cdt2^PIP-3A: Cdt2 with I709, Y712, and F713 all mutated to alanine (protein, UniProt Q9NZJ0 1-730, looked up, variant I709A Y712A F713A)
Denticleless protein homolog: MLFNSVLRQPQLGVLRNGWSSQYPLQSLLTGYQCSGNDEHTSYGETGVPVPPFGCTFSSAPNMEHVLAVANEEGFVRLYNTESQSFRKKCFKEWMAHWNAVFDLAWVPGELKLVTAAGDQTAKFWDVKAGELIGTCKGHQCSLKSVAFSKFEKAVFCTGGRDGNIMVWDTRCNKKDGFYRQVNQISGAHNTSDKQTPSKPKKKQNSKGLAPSVDFQQSVTVVLFQDENTLVSAGAVDGIIKVWDLRKNYTAYRQEPIASKSFLYPGSSTRKLGYSSLILDSTGSTLFANCTDDNIYMFNMTGLKTSPVAIFNGHQNSTFYVKSSLSPDDQFLVSGSSDEAAYIWKVSTPWQPPTVLLGHSQEVTSVCWCPSDFTKIATCSDDNTLKIWRLNRGLEEKPGGDKLSTVGWASQKKKESRPGLVTVTSSQSTPAKAPRAKCNPSNSSPSSAACAPSCAGDLPLPSNTPTFSIKTSPAKARSPINRRGSVSSVSPKPPSSFKMSIRNWVTRTPSSSPPITPPASETKIMSPRKALIPVSQKSSQAEACSESRNRVKRRLDSSCLESVKQKCVKSCNCVTELDGQVENLHLDLCCLAGNQEDLSKDSLGPTKSSKIEGAGTSISEPPSPISPYASESCGTLPLPLRPCGEGSEMVGKENSSPENKNWLLAMAAKRKAENPSPRSPSSQTPNSRRQSGKKLPSPVTITPSSMRKACTAAHRKSQEDFCGPEHSTEL
modifications: FLAG tag
notes: Cdt2 with I709, Y712, and F713 all mutated to alanine

Columns and labels:
Type in all cases: cell-based, human
[1] = test system: Cdt1 degradation, U2OS cells; test: Cdt1 degradation after UV irradiation in U2OS cells; settings: for Cdt1 degradation after UV: siCdt2 (3′ UTR), UV 20 J/m^2
From the text: Because the poly-ubiquitination activity of Cdt2^PIP-3A was reduced, we monitored the degradation of Cdt1 after UV irradiation. Asynchronously growing control U2OS cells and cells expressing Cdt2^WT or Cdt2^PIP-3A (Fig S7) were depleted of endogenous Cdt2 using an siRNA targeted to the 3′ UTR, and irradiated with UV.
Figure 7. The Cdt2 PIP box plays an important role for rapid Cdt1 degradation after UV irradiation. (A) U2OS cells and U2OS cells stably expressing Cdt2^WT-3FLAG or Cdt2^PIP-3A-3FLAG were transfected with siCdt2 targeted to the 3′ UTR or control siLuc for 48 h, irradiated with UV (+, 20 J/m^2) or not (−), and collected at the indicated time points (min) for Western blotting. (B) The protein levels were measured and the relative amounts of Cdt1, normalized to RCC1, after UV irradiation were shown, UV (−) level set as 1.0. Error bars represent SD from three independent experiments. (C) Cells were transfected with siCdt2 or control siLuc for 72 h, irradiated with UV (+, 5 J/m^2) or not (−) (not shown), and 1h later fixed for staining with Cdt1 and cyclinA antibodies. (D) The frequency of Cdt1-positive (+) cells among the total cells in (C) was shown (%) (average of two independent experiments).
Double-stranded RNAs were transfected at 100 nM using Oligofectamine (Invitrogen) or HiPerFect (QIAGEN). Twenty-four hours after the first transfection, a second transfection was performed and cells were cultured for two more days. The following siRNAs were made by Dharmacon: Skp2; […], Cdt2_3′UTR; […]. The siRNA for siLuc, known as GL2, was used as a control siRNA. For Cdt1 silencing in Fig 1A and B, unsychronized HeLa cells were transfected twice with 200 nM of Cdt1 siRNA or control luciferase siRNA using Lipofectamine 2000 with a time interval of 24 h and were analysed 48 h after the second transfection. In synchronized MCF7 cells (Fig 1D), a single transfection with 200 nM of Cdt1 siRNA or control luciferase siRNA using Lipofectamine 2000 5 h after release from thymidine and before adding nocodazole was carried out. The Cdt1 siRNA was made by MWG: […].

HEK293 cells, PCNA foci = test: Co-localization of Cdt2 with PCNA foci (S phase) in HEK293 cells; settings: stable HEK293, asynchronous, pre-extracted
From the text: XPA, a component of nucleotide excision repair, staining was used to confirm that similar extents of DNA damage were induced both in Cdt2^WT- and Cdt2^PIP-3A-expressing cells. […] A similar percentage of PCNA-positive S-phase cells was detected both in Cdt2^1–730/WT-expressing cells and Cdt2^PIP-3A-expressing cells (Fig S6). […] More than 80% of PCNA-positive cells were co-stained with Cdt2^WT, with the early S-phase cells displaying stronger Cdt2^WT staining than the late S-phase cells as reported ([Nukina et al, 2018]) (Figs 6B and C, and S6A).
Figure 6. The Cdt2 PIP box is important for its recruitment to DNA damage sites and replication foci and for poly-ubiquitination activity. (A) HEK293 and stable Cdt2^WT or Cdt2^PIP-3A cells were locally UV irradiated, and stained for XPA and FLAG (Cdt2). XPA-positive spots were examined for FLAG signal, and its frequency was counted (%). More than 50 spots were examined. bar:10 μm. […] Bar: 10 μm. […] (D) Whole-cell extracts were prepared from HEK293 and stably transfected cells of Cdt2^WT or Cdt2^PIP-3A cells, separated into soluble (Sup) and chromatin-containing insoluble (Ppt) fractions, and were examined for indicated proteins. The asterisk indicates nonspecific bands. […]
For Western blotting, whole-cell lysates were prepared by lysing cell pellets directly in SDS–PAGE buffer. […] Protein levels were analysed by ImageJ software.

[2] = test system: chromatin-containing fraction, HEK293 cells; test: Chromatin fractionation of Cdt2; settings: stable HEK293, Western blot
Procedure: Figure 6. The Cdt2 PIP box is important for its recruitment to DNA damage sites and replication foci and for poly-ubiquitination activity. (A) HEK293 and stable Cdt2^WT or Cdt2^PIP-3A cells were locally UV irradiated, and stained for XPA and FLAG (Cdt2). XPA-positive spots were examined for FLAG signal, and its frequency was counted (%). More than 50 spots were examined. bar:10 μm. […] Bar: 10 μm. […] (D) Whole-cell extracts were prepared from HEK293 and stably transfected cells of Cdt2^WT or Cdt2^PIP-3A cells, separated into soluble (Sup) and chromatin-containing insoluble (Ppt) fractions, and were examined for indicated proteins. The asterisk indicates nonspecific bands. (E) HEK293 and stably transfected cells of Cdt2^WT or Cdt2^PIP-3A were treated with MG132 for 3 h. Whole-cell extracts (WCE) were prepared, separated into soluble (Sup) and insoluble (Ppt) fractions, and blotted with the indicated antibodies.
Cell extracts were prepared using 0.1% Triton X-100–containing mCSK buffer (200 μg of total protein in 400–800 μl). After centrifugation (17,900g for 10 min at 4°C), soluble and chromatin-containing pellet fractions were obtained. The pellets were washed with ice-cold 0.1% Triton X-100–containing mCSK buffer and subsequently suspended in SDS sample buffer.

Molecule	Cdt1 degradation after UV [1]	PCNA-positive cells co-stained with Cdt2 (HEK293 cells, PCNA foci)	recovery in chromatin-containing fraction [2]	Cdt1 stability after low-dose UV ([1]; siCdt2, UV 5 J/m^2, 1 h post UV)	Cdt2 signal in PCNA foci (HEK293 cells, PCNA foci)
Cdt2: Cdt2 tagged with GFP, transiently expressed in MCF7 cells	restored Cdt1 degradation to similar kinetics to that of control siRNA-transfected U2OS cells	More than 80%	recovered in a chromatin-containing fraction	–	–
B1	much less effective in rescuing Cdt2 depletion	–	undetectable	Cdt1 remained stable 1 h post UV irradiation	almost no signal was detected
